Reference: US20090311283A1
Each block holds one substance with its values, some of them ahead of it.

How the values were obtained:
HLA-A*0301 (human) = experiment: competition with 125I-labelled probe peptide for purified HLA, gel filtration; value relative to standard peptide
HLA-A*2401 (human) = experiment: competition with a 125I-labelled probe peptide for purified HLA, gel filtration; binding relative to the standard peptide

Substance: HBV ENV 177 8-mer peptide […] (peptide; other documents disagree on this pair)
binding affinity ratio (IC50 of standard peptide / IC50 of test peptide) (HLA-A*0201 (human)): 0.0019

binding affinity ratio (IC50 of standard peptide / IC50 of test peptide) (HLA-A*0301 (human)): 0.0016
Substance: HBV POL 377 LWDFSQF (peptide)

Substance: […] (HBV ENV 249, 15-mer) (peptide; other documents disagree on this pair)
binding affinity ratio (IC50 of standard peptide / IC50 of test peptide) (HLA-DRB1*0401 (human)): 0.032 | binding affinity ratio (IC50 of standard peptide / IC50 of test peptide) (HLA-DRB1*0101 (human)): 0.0026 | binding affinity ratio (IC50 of standard peptide / IC50 of test peptide) (HLA-DRB1*0701 (human)): 0.0047 | binding affinity ratio (IC50 of standard peptide / IC50 of test peptide) (HLA-DRB1*1101 (human)): 0.0018 | binding affinity ratio (IC50 of standard peptide / IC50 of test peptide) (HLA-DRB5*0101 (human)): 0.0069

binding affinity ratio (IC50 of standard peptide / IC50 of test peptide) (HLA-A*2401 (human)): 0.0001
Substance: HBV ENV 362 peptide WYWGPSLY

Substance: HBV ENV 177 10-mer peptide […] (peptide; other documents disagree on this pair)
binding affinity ratio (IC50 of standard peptide / IC50 of test peptide) (HLA-A*0201 (human)): 0.0011

Substance: HBV ENV 177 9-mer peptide […] (peptide; other documents disagree on this pair)
binding affinity ratio (IC50 of standard peptide / IC50 of test peptide) (HLA-A*0201 (human)): 0.066
